{"source": "paper PMC9037348", "binders": {"B1": {"name": "γ1 subunit of the skeletal muscle voltage-gated calcium channel (mouse γ1) (natural protein)", "chain": "MSQTKTAKVRVTLFFILVGGVLAMVAVVTDHWAVLSPHLEHHNETCEAAHFGLWRICTARVAVHNKDKSCEHVTPSGEKNCSYFRHFNPGESSEIFEFTTQKEYSISAAAIAIFSLGFIIVGSICAFLSFGNKRDYLLRPASMFYAFAGLCLIVSVEVMRQSVKRMIDSEDTVWIEHYYSWSFACACAAFILLFLGGLFLLLFSLPRMPQNPWESCMDAEPEH"}}, "target": "GFP-CaV1.1e (embryonic splice variant of CaV1.1, lacking exon 29)", "data": [{"binder": "B1", "values": [{"measurement": "shift of the half-maximal potential of steady-state inactivation of CaV1.1e calcium currents to hyperpolarizing potentials on coexpression of γ1 (whole-cell patch clamp, HEK-TetOn-STAC3 cells)", "result": 13.7, "unit": "mV"}]}]}
